Assay results from patent US20220332803A1 (SIEMENS HEALTHCARE DIAGNOSTICS, published 2022).
Square brackets hold non-standard residues; d marks the D form. Ends that are not written are not given here. Nle = CCCC[C@H](N)C(=O)O

T1: Hog Intrinsic Factor (Sus scrofa)
T1 construct: The source of the HIF sample used in the ELISAs is not described; also called HIF; Intrinsic Factor from Sus scrofa
T1 chain: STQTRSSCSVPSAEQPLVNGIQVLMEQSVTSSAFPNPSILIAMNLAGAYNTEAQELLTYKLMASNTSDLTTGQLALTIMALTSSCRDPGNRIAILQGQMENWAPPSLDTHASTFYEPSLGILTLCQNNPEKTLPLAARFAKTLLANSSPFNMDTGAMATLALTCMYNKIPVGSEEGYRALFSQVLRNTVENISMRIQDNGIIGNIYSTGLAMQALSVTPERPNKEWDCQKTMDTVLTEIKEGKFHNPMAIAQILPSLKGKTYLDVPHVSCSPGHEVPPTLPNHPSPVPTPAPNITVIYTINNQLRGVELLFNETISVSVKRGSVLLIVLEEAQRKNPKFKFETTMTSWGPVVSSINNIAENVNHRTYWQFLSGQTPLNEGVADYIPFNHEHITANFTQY

T2: recombinant yeast-produced non-glycosylated pig TCN1 protein (Lifespan Biosciences, LS-G23154) (Sus scrofa, UniProt P17630 26-417)
T2 construct: Bought protein, Mw 46.3 kDa, non-glycosylated; also called rec Pig TCN1; recombinant Pig TCN1
T2 sequence: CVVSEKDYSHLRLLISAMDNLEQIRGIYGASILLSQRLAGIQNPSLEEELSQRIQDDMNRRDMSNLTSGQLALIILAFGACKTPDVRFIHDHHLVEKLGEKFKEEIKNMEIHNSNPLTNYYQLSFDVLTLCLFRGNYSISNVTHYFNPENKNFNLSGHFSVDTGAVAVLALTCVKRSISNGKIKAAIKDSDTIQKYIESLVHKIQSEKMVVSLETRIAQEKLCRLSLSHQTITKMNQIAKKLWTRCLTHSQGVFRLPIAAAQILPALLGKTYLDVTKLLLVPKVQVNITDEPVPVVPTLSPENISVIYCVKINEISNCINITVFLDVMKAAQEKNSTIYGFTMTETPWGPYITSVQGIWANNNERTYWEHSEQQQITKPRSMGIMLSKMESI

T3: R2 peptide (Hog TCN1 Peptide 80-89) (Sus scrofa)
T3 construct: Synthetic peptide QDDXNRRDXS, X = norleucine; also called synthetic R2 peptide
T3 peptide: QDD[Nle]NRRD[Nle]S

T4: native Hog R-protein (glycosylated Hog TCN1 purified from crude powdered extract of hog gastric mucosa) (Sus scrofa, UniProt P17630 26-417, glycosylated, up to about 50% w/w carbohydrates)
T4 construct: Mw about 70-92 kDa; The native preparation used for Biacore is not described further; also called native Hog TCN1; partially purified native Hog R-protein
T4 sequence: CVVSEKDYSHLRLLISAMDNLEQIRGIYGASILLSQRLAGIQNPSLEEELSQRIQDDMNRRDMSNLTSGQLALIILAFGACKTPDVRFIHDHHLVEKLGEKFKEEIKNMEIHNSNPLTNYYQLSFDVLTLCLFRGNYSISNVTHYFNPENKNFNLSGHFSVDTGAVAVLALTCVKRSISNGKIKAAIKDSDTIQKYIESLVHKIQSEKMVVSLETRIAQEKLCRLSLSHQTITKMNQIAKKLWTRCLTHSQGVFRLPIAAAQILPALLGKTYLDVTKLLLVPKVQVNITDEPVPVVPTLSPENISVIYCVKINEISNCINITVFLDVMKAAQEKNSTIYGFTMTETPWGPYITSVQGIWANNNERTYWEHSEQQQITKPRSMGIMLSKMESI


Assays:
[1] = biological target: T1, Hog Intrinsic Factor; assay: ELISA, single point, hybridoma supernatant on plate coated with Hog Intrinsic Factor, OD 650 nm
Method: One week after the last injection, the mice were bled, and the serum samples were tested for peptide-specific antibodies in an ELISA assay with corresponding ovalbumin conjugates and free peptides. All ELISA steps were performed at room temperature. Nunc Maxi-Sorp™ flat-bottom ELISA plates were coated with peptide or peptide-OVA conjugate at 2 and 1 μg/mL in PBS, respectively, at 50 μl per well for 1 hour. The plates were flicked dry, and the remaining binding sites were blocked by adding 200 μl per well of blocking solution (0.5% Casein in PBS containing 0.05% Tween 20) for 1 hour. Plates were washed three times with Milli-Q water containing 0.05% Tween 20, and antibody samples to be tested (serum, hybridoma supernatant, or mAb dilutions in PBS) were placed in the wells of the plates at volume 50 μl per well. After incubation for one hour, the plates were washed again as described above, and goat anti-mouse IgG-HRP conjugate diluted 1:3,000 in blocking solution was added at 50 μl per well for 1 hour. The plates were washed, and TMB substrate (Moss, Pasadena, Md.) was added at 100 μl per well for 15 minutes. Optical density of the samples at 650 nm was measured using an ELISA plate reader.
Mice received prefusion boosts on three consecutive days with the same immunogen (10 μg/dose/animal in PBS, IP), and on the fourth day, mouse spleens were harvested and frozen. Several years later, when recombinant Pig TCN1 protein became commercially available, thawed immune splenocytes were used for hybridoma preparation according to the standard procedure described above in Example 1. Hybridoma supernatants were screened for binding both rec Pig TCN1 (LifeSpan BioSciences, LS-G23154, Seattle, Wash.) and partially purified native Hog-R-protein adsorbed on ELISA plates at 1 μg/mL in 50 μl volume per well. Several hybridomas giving positive signals on both antigens were selected. […] No cross-reactivity of the monoclonal antibodies with Hog Intrinsic Factor was observed. The hybridomas were sub-cloned by limiting dilution, expanded, and frozen.

[2] = biological target: T2, recombinant yeast-produced …; assay: SPR (Biacore T200), mAb immobilised on CM5 chip, antigen injected at 25-1600 nM, 1:1 fit
Method: (§1) The binding parameters of the interaction between the anti-Hog TCN1 monoclonal antibodies and the TCN1 protein were determined in kinetics experiments using Biacore T200 equipped with Biacore T200 Control Software Version 2.0.1 (GE Healthcare Bio-Sciences, Pittsburgh, Pa.). Anti-Hog TCN1 mAbs were immobilized at 700-5,000 RU density on the carboxymethyl dextran surface in flow cells 2, 3, and 4 of the CM5 sensor chip using amino-coupling chemistry. Control antibody was immobilized in flow cell 1 for bulk effects subtraction. Recombinant Pig TCN1 (LifeSpan BioSciences, LS-G23154, Seattle, Wash.) or native Hog R-protein were injected over the surfaces with immobilized mAbs during 8 minutes at a 30 μL/min flow rate followed by 20 minutes of dissociation. The buffer blanks were run in triplicate by injection of running buffer (10 mM HEPES, 150 mM NaCl, 0.05% P-20, pH 7.4) and used to double-reference the mAb-binding data before fitting. After each cycle of binding, the surface was regenerated by two consecutive injections of 10 mM Glycine, pH 2.0 and 0.1 M Sodium Bicarbonate, pH 8.5 for 30 seconds each at a 30 μL/min flow rate. Kinetic data were collected over 25-1600 nM antigen concentrations and globally fitted to a simple 1:1 interaction model. Biacore T200 Evaluation Software Version 3.0 (GE Healthcare Bio-Sciences) was used to determine the binding parameters of the Hog TCN1 specific mAbs interaction. Kinetic parameters of the binding of the anti-Hog TCN1 monoclonal antibodies with rec Pig TCN1 and native Hog R-protein are presented in Table 5.

[3] = biological target: T3, R2 peptide (Hog TCN1 Peptide 80-89); assay: ELISA, antigen titrated on the plate (2-fold from 8 µg/mL), mAb at 1 µg/mL, goat anti-mouse IgG-HRP, OD 650 nm
Method: (§2) Purified mAbs were tested in an ELISA assay for binding to corresponding peptide, partially purified native Hog-R-protein, and recombinant Pig TCN1 (Lifespan BioSciences, LS-G23154, Seattle, Wash.), and Hog Intrinsic Factor. For this purpose, 2-fold dilution of the antigens starting from 8 μg/mL in PBS were placed in the wells of ELISA plates at 50 μl per well for 1 hour at room temperature. The plates were flicked dry, blocked with 200 μl per well of blocking solution, and washed three times as described above. Monoclonal antibodies to Hog TCN1 peptides at 1 μg/mL in PBS were added at 50 μl per well. After 1-hour incubation, the plates were washed again, and goat anti-mouse IgG-HRP conjugate diluted 1:3,000 in blocking solution was added at 50 μl per well for 1 hour. The plates were washed, and TMB substrate (Moss, Pasadena, Md.) was added at 100 μl per well for 15 minutes. Plates were read at 650 nm using an ELISA plate reader.

[4] = biological target: T1, Hog Intrinsic Factor; assay: ELISA, antigen titrated on the plate, mAb at 1 µg/mL, goat anti-mouse IgG-HRP, OD 650 nm
Method: as §2

[5] = biological target: T2, recombinant yeast-produced …; assay: SPR (Biacore T200), mAb immobilised on CM5 chip, antigen injected at 25-1600 nM, 1:1 fit; rec TCN1 protein (non-glycosylated, yeast-produced)
Method: as §1, with “Biacore T200 Evaluation Software Version 3.0 (GE Healthcare Bio-Sciences) was used to determine the binding parameters of the Hog TCN1 specific mAbs interaction. Kinetic parameters of the binding of the anti-Hog TCN1 monoclonal antibodies with rec Pig TCN1 and native Hog R-protein are presented in Table 5.” left out

[6] = biological target: T4, native Hog R-protein (glycosylated Hog …); assay: SPR (Biacore T200), mAb immobilised on CM5 chip, antigen injected at 25-1600 nM, 1:1 fit; native Hog R-protein (heavily glycosylated)
Method: as §1, with “Biacore T200 Evaluation Software Version 3.0 (GE Healthcare Bio-Sciences) was used to determine the binding parameters of the Hog TCN1 specific mAbs interaction. Kinetic parameters of the binding of the anti-Hog TCN1 monoclonal antibodies with rec Pig TCN1 and native Hog R-protein are presented in Table 5.” left out

[7] = biological target: T2, recombinant yeast-produced …; assay: SPR (Biacore T200); reference is the same mAb on native Hog R-protein
Method: as §1, with “Biacore T200 Evaluation Software Version 3.0 (GE Healthcare Bio-Sciences) was used to determine the binding parameters of the Hog TCN1 specific mAbs interaction. Kinetic parameters of the binding of the anti-Hog TCN1 monoclonal antibodies with rec Pig TCN1 and native Hog R-protein are presented in Table 5.” left out

[8] = biological target: T4, native Hog R-protein (glycosylated Hog …); assay: SPR (Biacore T200), mAb immobilised on CM5 chip, antigen injected at 25-1600 nM, 1:1 fit
Method: as §1

| Binder | binding result [1] | Kd [2] [nM] | koff [2] [s⁻¹] | kon [2] [M⁻¹ s⁻¹] | binding result [3] | binding result [4] | kon [5] [M⁻¹ s⁻¹] | Kd [6] [nM] | fold higher affinity than to native Hog R-protein [7] [fold] | koff [8] [s⁻¹] | kon [8] [M⁻¹ s⁻¹] | Kd [8] [nM] |
| --- | --- | --- | --- | --- | --- | --- | --- | --- | --- | --- | --- | --- |
| 171J 3A6 monoclonal antibody (antibody, mouse IgG2b, V domains shown, Mouse IgG2b, kappa, from a hybridoma (immunogen partially purified native Hog R-protein)) VH: QVQLQQPGAELVRPGALVKLSCKASGYTFTRYWIQWVKQRPGQGLEWIGNISPNSGSVNYSEKFKGKATLTVDKPSSTAYMQLNSLTSEDSAAYYCVRSGGDYFDYWGQGTTLTVSS VL: DVLMTQTPLSLPVSLGVQASISCRSSQSILHANGNTYLEWYLQKPGQSPKLLIYKVSNRFSGVPDRFSGSGSGTDFTLYISRVEAEDLGVYYCFQGSHLPWTFGGGTKLEIK | no binding | 2.6 | 6.81e-05 | 26000 |  |  |  |  |  |  |  |  |
| 171B 1G5 monoclonal antibody (antibody, V domains shown) VH: EVQLQESGPSLVKPSQTLSLTCSVTGDSITSDYWNWIRKFPGNKLEYMGYISYSGNTYYIPSLKSRISITRDTSKNQYYLQLNSVTSEDTATYYCARYDYDVYFSLDYWGQGTSVTVSS VL: DVVMTQTPLSLPVSLGDQASISCRSSQSLVHSNRNTYLHWYLQRPGQSPKLLVYKVSNRFSGVPDRFSGSGSGTDFTLKISRVEAEDLGVYFCSQSTHVPLTFGAGTKLELKR |  | 72.3 | 0.0047 | 65000 | binds | no binding |  |  |  |  |  |  |
| 171J 9G7 monoclonal antibody (antibody, mouse IgG1, V domains shown, Mouse IgG1, kappa, from a hybridoma (immunogen partially purified native Hog R-protein)) VH: EVQLQQSGAELVKPGASVKLSCTGSGFNIEDIYIHWVKQRPEQGLEWIGRMDPANGDTVYASKFQGKATMTADTSSNTAYMQLSSLTSGDTAVYYCARVFDYWGQGTSLTVSS VL: DVVMTQTPLSLPVSLGDQASISCRSSQNLVHSNGYTYLHWYLQKPGQSPKLLIYKVSNRFSGVPDRFSGSGSGTDFTLKISRVEAEDLGVYFCSQNTHVPYTFGGGTKLEIK | no binding |  |  |  |  |  | 50600 | 143 | > 500 | 0.00069 | 4830 |  |
| 171J 3F1 monoclonal antibody (antibody, mouse IgG1, V domains shown, Mouse IgG1, kappa, from a hybridoma (immunogen partially purified native Hog R-protein)) VH: EVQLQQSGPELLKPGVSVMISCRASGYTFTDYTMHWVKQSHGESLEWIGGIIPKSGTSNYNEKFKDKATLTVDKSSSTSYMELRSLTSEDSAVYYCARNYYDGGSYYFDYWGQGTTLTVSS VL: DIQMTQSPASLSASVGETVTITCRTSGNIHNFLTWFQQKQGKSPQLLVYSAETLADGVPSRFSGSGSGTQFSLRINSLQPEDFGSYFCQHFWNTPFTFGSGTKLEMK | no binding | 2.3 | 0.000165 | 71500 |  |  |  |  |  |  |  |  |
| 171J 5H12 monoclonal antibody (antibody, mouse IgG1, V domains shown, Mouse IgG1, kappa, from a hybridoma (immunogen partially purified native Hog R-protein)) VH: QVQLQQSGAELVKPGASVKISCKASGYAFSSSWMNWVKQRPGKGLEWIGQIYPGDGDTNYNGKFKDKATLTADKSSNTAYMQLSSLTSEDSAVYFCARVNWDAFSYIDVWGTGTTVTVSS VL: DIKMTQSPSSMYESLGERVTITCRASQDINVYLSWFQQKPGESPKTLIYRADRLVDGVPSRFSGSGSGQDYSLTISSLEYEDVGIYYCLQYDEFPYTFGGGTKLEIK | no binding |  |  |  |  |  |  |  |  | 1.9e-05 | 115000 | 0.17 |
